Biological target: T1, endogenous full-length myocilin from conditioned media of primary human TM cells (Homo sapiens, UniProt Q99972)
T1 construct: myocilin, human, endogenous, secreted into the medium; called full-length (~55 kDa); also called endogenous full-length myocilin (~55 kDa)
Assay: immunoprecipitation; antibodies incubated with 15 mL conditioned medium of primary human TM cells without enrichment, or HBS buffer as control; myocilin found by Western blot
Settings: one partner purified

T1 sequence (Q99972 33-504): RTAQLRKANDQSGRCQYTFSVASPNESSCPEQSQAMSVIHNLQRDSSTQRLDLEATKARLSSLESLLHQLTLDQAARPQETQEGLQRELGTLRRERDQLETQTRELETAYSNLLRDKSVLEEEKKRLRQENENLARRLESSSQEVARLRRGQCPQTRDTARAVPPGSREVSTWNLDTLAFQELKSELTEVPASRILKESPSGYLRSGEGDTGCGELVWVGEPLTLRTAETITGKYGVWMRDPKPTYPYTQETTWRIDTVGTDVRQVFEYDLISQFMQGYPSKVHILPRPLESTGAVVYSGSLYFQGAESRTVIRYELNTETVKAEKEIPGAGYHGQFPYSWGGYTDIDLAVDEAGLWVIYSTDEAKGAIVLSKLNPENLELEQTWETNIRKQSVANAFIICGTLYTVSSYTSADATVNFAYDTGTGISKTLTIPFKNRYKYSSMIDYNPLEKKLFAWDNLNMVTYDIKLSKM

B1: anti-OLF1 chimeric IgG (murine variable domains, human IgG1/kappa constant domains) (antibody, V domains shown)
VH: QVQLQQSGPELVKPGASVKISCKTSGYTFTENTMHWVRQSHGKSLEWIGGIHPNNIGSTYNQKFKGKATLTVDKSSSTAYMELRSLTSEDSAVYYCTRGATAPFAYWGQGTLVTVSA
VL: DIVMTQTPLSLPVSLGDQASISCRSSQSIVHSNGNTYLHWYQQKSGQSPKLLIYKVSNRFSGVPDRFSGSGSGTDFTLKISRVEAEDLGVYFCSQSTHVPPTFGGGTKLEIK
Does B1 bind?
Result: binds

Source: article PMC11670252, “Antibody-mediated clearance of an ER-resident aggregate that causes glaucoma” (PNAS Nexus, 2024)
